From patent publication US20190315864A1 (SUZHOU ALPHAMAB, published 2019) come the findings set out here.

As a reminder, the EC50 is the concentration at which the effect is half-maximal. What is called IC50 is the concentration needed to halve the response being measured. Low readings indicate higher potency, high ones lower potency.

Experiment [1] has as its target T1, CTLA4-Fc fusion protein (human, biotinylated where used as CTLA4-Fc-Biotin (Examples 5.1-5.3)).
T1 construct: expressed in HEK293 cells; also called human CTLA4-Fc protein; CTLA4-Fc antigen protein
The experiment in a line: ELISA OD ratio, value equals OD(CTLA4)/OD(Fc). The method, then:
(§1) Plates were coated with CTLA4-Fc fusion protein overnight at 4° C. and 10 ng of the heavy chain single-domain antibody obtained in Example 2.1 (the control was a single domain antibody not binding to the CTLA4-Fc protein) was added to each well and allowed to react for 1 hour at room temperature. After washing, primary antibody anti-His tag antibody (purchased from Beijing Kangwei Century Biotechnology Co., Ltd.) was added and reacted for 1 hour at room temperature. After washing, a secondary goat anti-mouse horseradish peroxidase-labeled antibody (Yiqiao Shenzhou, Cat: SSA007200) was added and reacted for 1 hour at room temperature. After washing, chromogenic agent was added and the absorbance was read at 405 nm.
(§2) Plates were coated with Fc protein overnight at 4° C. and 10 ng of the heavy chain single domain antibody obtained in Example 2.1 was added to each well (control was a single domain antibody against other unrelated targets) and allowed to react for 1 hour at room temperature. After washing, an rabbit anti-human Fc antibody (purchased from Shanghai Pu Xin Biotechnology Co., Ltd.) was added and reacted for 1 hour at room temperature. After washing, goat anti-rabbit horseradish peroxidase labeled antibody (purchased from Shanghai Pu Xin Biotechnology Co., Ltd.) was added and reacted at room temperature for 1 hour. After washing, chromogenic agent was added and the absorbance was read at 405 nm.
In general terms: In an ELISA, binding on a coated surface is turned into a signal by an enzyme label.

Experiment [2] deals with T1, CTLA4-Fc fusion protein. The experiment in a line: competitive ELISA: CD80-Fc-Biotin signal on coated CTLA4-Fc with 500 ng VHH/well; competitor CD80-Fc-Biotin. The method, then: (§3) SA-HRP (purchased from Sigma) was added and allowed to react for 1 hour at room temperature. After adding chromogenic solution, absorbance was read at 405 nm wavelength.
For experiment [3], the target named is T1, CTLA4-Fc fusion protein. Put plainly: ELISA OD ratio, value equals OD(CTLA4)/OD(blank). The method, then: as §1
Experiment [4] addresses T1, CTLA4-Fc fusion protein. Put plainly: ELISA, CTLA4-Fc coated, 10 ng VHH/well. The method, then: as §1
Experiment [5] has as its target T2, Fc protein.
T2 construct: Counter-screen for the Fc part of CTLA4-Fc
The experiment in a line: ELISA, Fc protein coated, 10 ng VHH/well. The method, then: as §2

In experiment [6] the target is T3, Mouse CTLA4-Fc protein (mouse, biotinylated (mCTLA4-Fc-Biotin)).
T3 construct: also called mCTLA4-Fc-Biotin; mouse CTLA4-Fc fusion protein
The experiment in a line: ELISA, VHH coated 0.5 µg/well, mouse CTLA4-Fc (biotinylated), SA-HRP; blank 0.027. The method, then:
(§4) Thereafter, SA-HRP (purchased from Sigma) was added, and the mixture was reacted at room temperature for 1.5 hours. After washing, chromogenic agent was added and the absorbance was read at 405 nm.

The target of experiment [7] is T1, CTLA4-Fc fusion protein. The experiment in a line: ELISA, VHH coated 0.5 µg/well, dilution series of CTLA4-Fc, anti-human IgG-Fc HRP; antibody No. 155. The method, then: (§5) The plates were coated with the obtained CTLA4 heavy chain single-domain antibody at 0.5 μg/well overnight at 4° C. followed by addition of a gradient dilution series of CTLA4-Fc fusion protein and allowed to react for 1 hour at room temperature. After washing, goat anti-human IgG-Fc horseradish peroxidase labeled antibody (lakepharma) was added and allowed to react for 1 hour at room temperature. After washing, horseradish peroxidase c chromogenic solution was added and the absorbance was read at a wavelength of 405 nm.

Experiment [8] has as its target T3, Mouse CTLA4-Fc protein. The experiment in a line: ELISA, VHH coated 0.5 µg/well, mCTLA4-Fc-Biotin, SA-HRP. The method, then: as §4
Experiment [9] addresses T1, CTLA4-Fc fusion protein. Put plainly: competitive ELISA, CTLA4-Fc coated, VHH series with 250 ng/mL CD80-Fc-Biotin. The method, then:
as §3

The target of experiment [10] is T1, CTLA4-Fc fusion protein. The experiment in a line: ELISA, VHH coated 0.5 µg/well, dilution series of CTLA4-Fc, anti-human IgG-Fc HRP; antibody No. C27. The method, then:
as §5

Experiment [11] has as its target T1, CTLA4-Fc fusion protein. Put plainly: ELISA, VHH coated 0.5 µg/well, dilution series of CTLA4-Fc, anti-human IgG-Fc HRP; antibody No. C1. The method, then: as §5
The target in experiment [12] is T1, CTLA4-Fc fusion protein. The experiment in a line: ELISA, VHH coated 0.5 µg/well, dilution series of CTLA4-Fc, anti-human IgG-Fc HRP; antibody No. 145 (printed as No. 14). The method, then:
as §5

Positions count from the first letter of the chain named.

B1: CTLA4 heavy chain single domain antibody No. J5 (VHH)
VHH: QVQLQESGGGSVQAGGSLRLSCAASGYTYSTYCMAWFRQVPEKERERVASIYTGGGTTYYADSVKGRFTISLDNAKNTLYLQMNSLKPEDTAMYYCAKSAARCDSSRDVNRLGYWGQGTQVTVSS
notes: Camel VHH expressed in E. coli (PET32b), nickel-purified
As for B1, in experiment [1], the ODa/OD blank was determined as 33.6. In experiment [2], this molecule gave an OD of 2.5 OD405. For the same molecule, in experiment [3], the ODa/ODb was 43.2. Besides, in experiment [4], the “OD (against CTLA4)” value came to 1.21 OD405. The “OD (against Fc)” value in [5] was determined as 0.036 OD405.

B2: CTLA4 heavy chain single domain antibody No. 155 (VHH)
VHH: QVQLQESGGGPVQAGGSLRLSCAVSKYPYSGSCMGWFRQAPGKEREGVAAMFTGTGSTYYADSVKGRFTISQNVAKNTLDLQMNSLKPEDTAMYYCAVDLLPRSTRCLDYGLRTYNYWGQGTQVTVSS
notes: as for B1
Turning to B2, the ODa/OD blank in experiment [1] is 33.8. For the same molecule, the OD in experiment [2] was 0.746 OD405. Also, in experiment [6], the “OD (against mouse CTLA4)” value was determined as 0.032 OD405. Besides, the EC50 in experiment [7] was about 0.013 mg/L. Also, the binding result in [8] was “no binding”. In addition, the ODa/ODb in [3] came to 61.6. In experiment [4], the “OD (against CTLA4)” value turned out to be 1.72 OD405. In experiment [9], this molecule displayed a half-maximal inhibitory concentration (IC50) of about 4.69 mg/L. Further, the “OD (against Fc)” value in experiment [5] is 0.051 OD405.

B3: CTLA4 heavy chain single domain antibody No. C27 (VHH)
VHH: QVQLQESGGGSVQAGGSLRLSCAASGYIYSAYCMGWFRQAPGKERVGVAAISIGGGSTYYADSVKGRFTISQDNAKNTLYLQMNSLKPEDTAMYYCAADVIPTETCLGGSWSGPFGYWGQGTQVTVSS
notes: as for B1
As to B3, the ODa/OD blank in [1] was found to be 26.7. In [2], the OD is 0.04 OD405. The “OD (against mouse CTLA4)” value in experiment [6] is 0.021 OD405. Besides, the binding result in experiment [8] was “no binding”. Also, in experiment [3], the ODa/ODb turned out to be 46.8. For the same molecule, the “OD (against CTLA4)” value in [4] amounted to 1.31 OD405. The IC50 in [9] is about 0.731 mg/L. Moreover, the “OD (against Fc)” value in experiment [5] is 0.049 OD405. The concentration giving a half-maximal response (EC50) in [10] was about 0.093 mg/L.

B4: CTLA4 heavy chain single domain antibody No. C1 (VHH)
VHH: B3 VHH with R19G, V46E, S52Y, I53L, N74I, Y95S
notes: Camel VHH expressed in E. coli (PET32b), nickel-purified, detected by anti-His tag antibody
B4 returned an EC50 in [11] of about 0.123 mg/L. Also, the ODa/OD blank in experiment [1] amounted to 22.7. In addition, the OD in experiment [2] came out at 0.054 OD405. The “OD (against mouse CTLA4)” value in experiment [6] stood at 0.042 OD405. In addition, the binding result in experiment [8] is “no binding”. In experiment [3], the ODa/ODb came out at 42.9. In addition, the “OD (against CTLA4)” value in [4] was determined as 1.2 OD405. In [9], this molecule displayed an IC50 of 0.852 mg/L. For the same molecule, the “OD (against Fc)” value in [5] is 0.053 OD405.

B5: CTLA4 heavy chain single domain antibody No. 145 (VHH)
VHH: QVQLQESGGGSVQAGGSLRLSCAASGYTYSSYSMGWFRQAAGKEREGVAAIDSDGSTSYADSVKGRFTISQDNAKNTLYLQMNSLEPEDTAMYYCAATAGWYAARHALSPLFFGYWGQGTQVTVSS
notes: as for B1
In turn, B5 came in with an EC50 in [12] of about 0.05 mg/L. In addition, the ODa/OD blank in [1] was determined as 22.9. This molecule also registered an OD in [2] of 0.597 OD405. For the same molecule, the “OD (against mouse CTLA4)” value in experiment [6] worked out at 0.026 OD405. Further, the binding result in [8] is listed as “no binding”. Further, the ODa/ODb in experiment [3] came out at 53.1. Besides, the “OD (against CTLA4)” value in experiment [4] worked out at 1.49 OD405. Further, the concentration for half-maximal inhibition (IC50) in experiment [9] was about 1.95 mg/L. In addition, the “OD (against Fc)” value in experiment [5] was 0.065 OD405.
